Results from patent US20250163145A1 (SHIONOGI, published 2025).
Where no end group is shown, it is not given here.

T1: epitope peptide Cys-CE3C long (also: biotin label, site not given here)
T1 peptide: CSVNVDKQPKYEYSL

T2: Cys-hCE3C peptide (CQPKYEYSL), hCE3C peptide of human Nav1.7 with an added N-terminal Cys (human, also: biotin-labeled, site not given here)
T2 construct: Residues 1424-1431 of human Nav1.7 (UniProtKB Q15858) plus an N-terminal Cys; also called immunogenic peptide; immunogen peptide
T2 peptide: CQPKYEYSL


Key:
[1] = molecular target: T1, epitope peptide Cys-CE3C long; assay: competitive ELISA (Example 5)
Experimental: A diluted solution of the obtained recombinant humanized antibody, a biotin-labeled immunogen peptide, and Streptavidin-HRP (manufactured by PIERCE) were added to an anti-human IgG antibody-immobilized plate, and reacted overnight at 4° C. […] Next, a recombinant human antibody at the dilution rate, a biotin-labeled immunogen peptide, and Streptavidin-HRP (manufactured by PIERCE) were added. At the same time, a dilution series of unlabeled immunogenic peptide was added and reacted overnight at 4° C. After washing twice with ELISA wash buffer, TMB-Substrate Chromogen (manufactured by Thermo Fisher Scientific) was added to develop color, the reaction was stopped with an equal amount of 0.5N sulfuric acid, and the absorbance at 450 nm was measured. The concentration of the unlabeled peptide which attenuated the signal of the biotin-labeled peptide by half was defined as the affinity (IC50).

[2] = molecular target: T2, Cys-hCE3C peptide (CQPKYEYSL), hCE3C …; assay: ELISA, hybridoma supernatant on anti-mouse IgG plate, biotin-labeled Cys-hCE3C + streptavidin-HRP
Experimental: Three days after the final immunization, the spleen was removed, splenocytes and mouse myeloma cells (p3x6363-Ag8, Tokyo Oncology Institute) were fused by the PEG-method, and selection was made in a medium containing hypoxanthine, aminopterin and thymidine. Human Nav1.7-binding antibodies were identified by performing ELISA against immunogenic peptides using hybridoma culture supernatants. Specifically, hybridoma culture supernatant was added to an anti-mouse IgG antibody immobilized plate, washed twice with ELISA wash buffer, and biotin-labeled immunogenic peptide (Cys-hCE3C) and Streptavidin-HRP (manufactured by PIERCE) was added and reacted overnight at 4° C. After washing twice with ELISA wash buffer and developing color by adding TMB-Substrate Chromogen (manufactured by Thermo Fisher Scientific), the reaction was stopped with an equal volume of 0.5N sulfuric acid, and the absorbance at 450 nm was measured.

binding result [2]	Binder	binding result [1]
	h15H11 light chain CDR mutant P95G (antibody, human IgG4 S228P, kappa, name in Kabat numbering, V domains shown, hIgG4Pro/hIgK) VH: QVQLVQSGSELKKPGASVKVSCKASGYTFTDYNMHWVRQAPGRSLEWMGRINPKNGVINSNEKFKDRFVFSLDTSVSTAYLQISSLKAEDTAVYYCAPSYYGGNTDAYWGQGTLVTVSS VL: DIVLTQSPASLAVSPGQRATITCRASESVDNYGISFMNWFQQKPGQPPKLLIYAASSQGSGVPARFSGSGSGTDFTLTINPMEANDTANYYCQQSKEFGWTFGGGTKVEIKR	no binding (tested: below the detection limit)
	h15H11 light chain CDR mutant Q90N (antibody, human IgG4 S228P, kappa, name in Kabat numbering, V domains shown, hIgG4Pro/hIgK) VH: QVQLVQSGSELKKPGASVKVSCKASGYTFTDYNMHWVRQAPGRSLEWMGRINPKNGVINSNEKFKDRFVFSLDTSVSTAYLQISSLKAEDTAVYYCAPSYYGGNTDAYWGQGTLVTVSS VL: DIVLTQSPASLAVSPGQRATITCRASESVDNYGISFMNWFQQKPGQPPKLLIYAASSQGSGVPARFSGSGSGTDFTLTINPMEANDTANYYCQNSKEFPWTFGGGTKVEIKR	no binding (tested: below the detection limit)
	h15H11 light chain CDR mutant W96Y (antibody, human IgG4 S228P, kappa, name in Kabat numbering, V domains shown, hIgG4Pro/hIgK) VH: QVQLVQSGSELKKPGASVKVSCKASGYTFTDYNMHWVRQAPGRSLEWMGRINPKNGVINSNEKFKDRFVFSLDTSVSTAYLQISSLKAEDTAVYYCAPSYYGGNTDAYWGQGTLVTVSS VL: DIVLTQSPASLAVSPGQRATITCRASESVDNYGISFMNWFQQKPGQPPKLLIYAASSQGSGVPARFSGSGSGTDFTLTINPMEANDTANYYCQQSKEFPYTFGGGTKVEIKR	no binding (tested: below the detection limit)
binds	mouse monoclonal antibody 15H11 (antibody, V domains shown, Mouse hybridoma antibody; also called mouse 15H11) VH: EVQLQQSGPELLKPGASVKISCKASGYTFTDYNMHWVKQSHGRSLEWIGRINPKNGVINSNEKFKDKATLTVDKSLSTAYMDLRSLTSEDSAVYFCAPSYYGGNTDAYWGHGTLVTVSA VL: not shown	
